From paper PMC5702849, “A Novel Halotolerant Thermoalkaliphilic Esterase from Marine Bacterium Erythrobacter seohaensis SW-135” (Frontiers in Microbiology, 2017)

Substrate: CCCC(=O)Oc1ccc([N+](=O)[O-])cc1
Test: purified protein
Type: biochemical, Qipengyuania seohaensis
Conditions: standard assay: 50 mM CHES pH 10.0, 40 °C, 0.05-4.0 mM substrate

B1: E69 (Qipengyuania seohaensis) (protein)
chain: MRDHGERFVVEAEERRTVSIERTNLGGVNIAWVSPSDKVPSSDGPLIFNLHDGGFALNDGDAALYTAVSFAELQQLDSVSVDYRLTPQHPYPAALEDAVAAYAVIKRKMPGRPIVVYGLSAGGGLGAAFLLKVKQLGLPMPEAAVLNSPWSDVSMNSDTLATLDCYDPLLGGSRPTLKPLANSYAAGADPQDPLVSPVYGDWEGVDVPVLLISGTRDVMLGDTVRLHRAMWRAGVPAELIVNEGMWHAFSVEPEFEAMIADSARFIRHISAKED
notes: expressed in E. coli BL21 (DE3) from pSMT3 as N-terminal His6-SUMO fusion, tag cleaved with ULP1 and removed; about 30 kDa on SDS-PAGE
Km: 2200 ± 300 µM
